Experimental data reported in the domain aggregation screens of Martell et al. (2025).

Experiment: soluble fraction after stress (log2 fold change); higher = more stays soluble; pooled small domains, quantitative proteomics
Conditions: stress: pH 4
Summary of the method: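 Following acid stress at pH 4, the amount of each small protein domain still soluble was measured in pooled custom libraries by high-throughput quantitative proteomics. Its fold change, on a log2 scale, is higher when more of the domain stayed soluble. This fold change is taken as a measure of aggregation propensity.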

Row | Sequence | soluble fraction (log2)
1 | HMSQVSTKYINVSSAYVRSKPSKDGEIVTSLIKNTDVTVTGENGDWYKIKFNNYEGYIFKELLSDSKLEE | -0.35
2 | HMGQKNEDESLAKFYVHKKGNQYGPYSLIQIREYLKNNSFSLDDLASWDGQSWKKISQIPNLN | 0.182
3 | HMRKIVEGVLTKKEGKWYLLTDIETYKISDASAEYHKAELNDRASALIPAQNPKVPFASLEKVFN | 0.186
4 | HMEALPELTDRQRQVYEFIEARIAEWGYPPTIREIGQHLGIKSTNGVADHLKALKRKGYLQQ | -0.804
5 | HMPPNPELGKKLLKLRKEFKMTQDDVANILGMSRTSFSKYENGIANPPLQVMRKLASIYNVGLEYLI | -0.0729
6 | HMQQQLLHIVFGGELKDVTGIEFEDLSKMDFVGAFSNYKDAYDAWKSAAQRTVDHAEMRYFILHAHKLL | -2.31
7 | HMRGAARRDRAVGERAVSKDTILDATRALLRKGSALEIRAIDIAEESGLSRQTVFQYYPVIRLIFFELSD | 0.155
8 | HMYPNEFPRKVMSVFESSGLEMFRTIEMLLAIPEYETPLPYGSGVSRSDIFVLAKSAGNLVSITV | -0.314
9 | HMGSGQVTLPDLEGKSMKEVARILSQLGLHLSPDGHGLAFKQSPAAGTRVPVGSTIKVSFQPL | -0.208
10 | HMIDTTKILPGQEFKNMQELSVALTGQKMPAGKGYVLQQEKFKLYFSWKKITGTHKLIIDEIYEEPKT | -0.573
11 | HMGLLLSQLDKDYQRYIDLADSTFRDNQLAVSRGWYNRALGVKAAEKYPKDQIAEIEKKIAERM | -0.108
12 | HMLTTVAAQRAALHQEEDITKLREIILKLVPFWGLDGGAYADKETSIQLERQYRESFDQAVSAARRSGQA | -0.234
13 | HMAYSEEDRRRVREELLTTALKLMSTQGIQHTTVEQVYRSVGISRSFFYAFFPTKEDLIVEAL | -0.0412
14 | HMLMTGSLQTKHGKYYVVVRIPDGLGNTKAKWINTGIPTDGNNKRKAQQRRIEILTELEENKD | 0.168
15 | HMSPPVIQQGQDVRLIYKGTGFAVSNEGKALNTAADGQVARARTGGGQTVSGIARPGGIIEIT | 0.103
16 | HMFIEMDEPEKILHRILNEANGKLELDKIGYRAEWPIGKVLTVLMSLELKGVVQSHPGKVYSL | -0.464
17 | HMNQRTATVTASQLNVRSGPSTAYSIVHVLRQGETVEVIGESDGWYQIRLKDGRVGWSSGQYLNLN | -0.481
18 | HMNKWMQLASEEDKKLFNEAPKEIQDSITESAKFFDIRTKADVDTFWANTGLRQMKQQAMLNESFVNEY | -0.482
19 | HMTQRRLQSELDSIPGVGAGTRTKLLRTLGSVDAVLRASEAELLAAGANRRQVASIQAHAAAVER | 0.0567
20 | HMFFDKIIVDFLADGSRIDKYISTLYPDISRTHIQRLIAEQFILVNDSVVKSNYKLSTNDVVLIHIPEA | -1.78
21 | HMEISNWLEEIGLSRYTETLSEFPLEDLVEFTDDDFKELGVLTPHRKKLLAAIATLNNDASSN | -1.12
22 | HMVPAMEVALEDARRAIEQVVSGERTSVQLSSQEAMIRKLQHQMAKDANLFSRSSGVEPQRRVTIYTN | -0.478
23 | HMTGESIPFSKFLSEVDSGRVINVEIQGNNISGLLSDGNKFKTYSPNYPNLVEILSEKEVSIVATPLE | -0.166
24 | HMVSDAWITGKVKSQLLADDVTPGMKIDVDTEDRIVSLKGTVPSLTARNEAIRIASHTKGVRTVDADELIV | -0.0247
25 | HMQDKIWVVDETQLYPKLIEAMSEGKAVIHDGVAYWAEGSGKTGVIQHLPFKETTVQNVEEAIKLAQ | -0.543
26 | HMLALKSGQVVVGTIIRRLDNTTAMLRIGNQLFETSFAKGLPKSNHILLRYDAMQGNRFIFTMVE | -0.063

Row | Sequence | soluble fraction (log2)
27 | HMDKVSYALGLGIGRQLTDMGAKDLNIDDFAQAIKDVLAGGEVKLSDAEAQTIVRNFFDEQEKKQRA | -0.637
28 | HMTKLPLLVELSRIIPTDTWVKKIKFSLGSVEFVGISKSASRLLPIVENSSYFHDTKFIGTIVT | -0.274
29 | HMDALIWYVSRGQQKFGPFNYFGVLKALQDKSVFEFDYVWKEGTENWVRLAEHELFSQEKVRELLA | -0.679
30 | HMEFYYSDLVGMIVYDTGGNELGKVQAVLNHGAGDLLEIHGVNLKTSILIPFTKEAVPTVDIAARRIVTDP | 0.00543
31 | HMTAVNEHELMNQFKLSLGYANGDDPQTKLSTDEKNDFMRFKEWATAMTKDSKMGKDPDYLKKLAVQWTLK | 0.102
32 | HMNINTEMEKVSYSLGVNIASSLKQQGWELDAKSLSDAFVDVFNGNKLLIDEKEASSILQNYQQKIANK | -1.1
33 | HMSAETRSWTDAQGNQTQAVLRGFDGGDVLLQNAAGKTLRVPVKNLSEDDQRYVVLNISTLID | -0.594
34 | HMSSEPASLVGKTGVAASVLRPSGRVEVNGEYYDAVSINGFIEKGESVFVHKYENAQLYVSKNSE | -0.183
35 | HMTLSENEKIIVDTIMKYQPLHIDVLNQQVKVDFYTLLGLLTKLEMEGIVLKNPGNIYKINTL | -0.865
36 | HMPLQKNRPKIKPQKVVFLFSVEWMWSPAHNRIDSYFINIKPSRYYLWNSFFDRHSFSDYWDFIGYTEN | 0.22
37 | HMAPPPLAGAREALREQIRRGSLSARRGFDAYADALGLPAGTRGAHPIFAALQRLDYPQALRLLDQEPT | -0.108
38 | HMPFSLHGVNEGSRNDNAARIAGYLISKNLNLDFVRIFLHNWNRDNKPPLPQQEIDSVVDNVKKTHDRKN | -0.0731
39 | HMSSIRDVVPEGLLSDREKLVLVLAFDRDLDGPDMARTLGISANTVRVLKARALKKLRQAGIQP | -0.34
40 | HMARTDVKLREVAQELLRMGLLEESLRPHLYRTALASMERLNATLEPLDLIARADEIRGLVFLAVRH | -0.548
41 | HMKLTNNDFIRLKTFMYNNYGINLENKKTLIETRLAIVVKRLGFNDFKSYIDNLMRDKTGEQASIIVGKLT | -0.141
42 | HMTNTDYPGKVVPVDPDGKTLKPDGDASYNDKPGTKVKTPTVPGYTAEVPNVEVPVGGGDIKVTYHKKPV | 0.0461
43 | HMADYYSILGLTKNATDIEIKSAFRKLAKIYHPDKNPDPNARVLFEHILKAYDTLINPHSRRRYDSL | 0.22
44 | HMTRVANIPYSEFLKLVETDKINDVSMVGKTISGHLDDGTKFSTYTPPNDPNLIDKLSKHNVIIKAGPE | 0.0499
45 | HMKEIATKSELTYFIQRLLDLLEETNFFNPEERKKAMINHIEAIFRRNNLTLQELNMLHGIITSITR | -1.38
46 | HMYVPEVPVPDLLGRSEEEAKNLIEDLGLVFKVSKREYSKEYDEGHVMEQSVDEGAKVKENYPVEVVISR | -0.325
47 | HMGPAYEKIVANGQTFYRYNVKKGEGLMAVSRTFNVSVNDILKYNPSAASGLKDGQELLIPVIDDA | -0.29
48 | HMGYNDQEVKSNLITLLSTSKTGLSGVEISAQLGINRVTMTKFLNVFAAEGIIKQKNIGNLNLWLVEEGTE | -0.05
49 | HMESAQLIINVAGKVSNPGVYQLPQGSRVVDAIEAAGKQLKGVDISDINLARVLVDGEQILVGGV | -1.35
50 | HMNIVVSSIDSNSFEIVNKETGEQAVISYDKETKKGFVLINGVKKEFFQDGNKVYYDGYVIAE | -0.466
51 | HMQYFDIETEIQKFIKSENNLSDFDKETLQSFLYQLSKGSPEENTAKKVVDILNKFLPLTTAIINMIKALT | -0.381
52 | HMSSSYMVRITTSVLNVRKGPGTNYGITTKVKKGEVYTIVAEEKNGNTTWGKLKSGTGYISLGYTER | -0.145

Row | Sequence | soluble fraction (log2)
53 | HMIVIMKAKAEEEDVNRVIDTIQSLGLRTQLNLGAERMVVAVIGDISKIGEDNFFRIRAMKGVENTVFVSK | -0.811
54 | HMDVLTARENEVLQLLAKGMSNKEIASVLVITEKTVKAHVSSILSKLNLSDRTQAALYAVKNGI | -0.154
55 | HMTKVMVPNVVGMSRGEAEEALRGVKLQVDLKREVSDDPEVKPEEVLRQTPDAQTSVPQGSVVTLYVADKP | -0.407
56 | HMGDTVSGTMLNLKPGVRVVHQIFGPGRVEETTGASLAEFRVTVRFEQKGLKTLLLQYAALQVINSEN | -1.05
57 | HMSADISIGYNIPKGSVTVSAGGRTLQEGIDYDINYDLGTIKITNQAILNAGLPVQVNFENNAS | -0.212
58 | HMKIRKAVIPAAGLGTRVLPASKSIPKEMLPIVDKPVIQYIVEEAVKAGITEILIITGRGKGAIEDHFDRS | 0.0275
59 | HMSEDTYNTLTKGTRVYNGVDYGAKYGYNPLYYFLNYNDLRIAYGADPAKLVEHYALFGIKENRVANRQIT | -0.247
60 | HMFANQLLLTRFDLNYIKSDVLSRQIDVLGIPIKKLTIEANNKSIWLQGTSQSLSKVRELIGIIDIRENA | -1.73
61 | HMSGEPVKSTLPGNVFKILVAVGDSVKKGQRMFVLEAMKMEIDVNAPKDGLVTSIEVQQGQTVANGQILAK | 0.181
62 | HMFERFIFTDEVYIRLKKSGLPQTTLRPLLEIHGKSFDHNEINIILSGLIPNQDFERYAQIIKSHSRF | -2.14
63 | HMPSLGGLLALLKRNRKPDAMEALDRLISKEDRPETAEALENIREKVRNMQMREAEGLLLALMEP | -0.281
64 | HMYTGSEGMAGLEGRAVTEVGPEAGTVLVKGEYWQARSDEPIATDRKIRVIRLEGLRLRVAEIHPEG | 0.169
65 | HMGPSLDAVREQIRDLIAEEDKSAPYSDLSLVAELEKRGIHISRRTIAKYRGEMGIPNSDQRRYF | 0.325
66 | HMFEQRLRQAMKELRLKQVQVAGLTGKSRGAISQYLSGDRVPPDGVQREMAIALGLEADYFSR | 0.343
67 | HMDNLSESQIKAYSSILSRTHEISDLAENKDYLAFSLWIANILRDPQSVREETAKRVFSALHTNTDFK | -0.793
68 | HMDGIRLYPGLMIEHKNFGRGQVVSVNRERGTFTAFFGKNGTRTLTIQILKTDTVRPLASQKAGK | -0.405
69 | HMQVRVERSRDKVVISGVNYYIHPVRKGETVYSIARAYGITTQDLVRENPSAAEGLKEGQSIRIPERLVD | 0.22
70 | HMDEVPMPPEYQYLRVGSRVHHATFGWGKVTRLSQPWPQTRAEVFFENIGPKKLVLAHAHLTMD | 0.113
71 | HMPVQPMDPSIEHISALTGKQFQAFPGQDHRAHMTAHLNFMSTNIVRNNPAVMGAIQKNILEHISLMAQEQ | -0.0918
72 | HMGPKALLKIPGLQEVDAELLFKEGYKSISAVASADPEMLKAIPGVDEQKVTEWVTGAEQILSQQVNKGA | 0.25
73 | HMLEQEQFESKLLKAINNINETQRIAFLMHRIDGKKYAEIASELNISVKAVEKRIHLALIELKKEIENF | -0.396
74 | HMKREELTQQTKQNLREAFWSLYIQKPIEKITVKEITDIAGYNRGTFYLYYKDTYDLLAKIE | -0.646
75 | HMRKPLDQSWVPDDDAMKILTNSGIEKEFIKNEIPEFILYWSDKGEISDSWNTKFISQIRRQWAKNQ | -0.465
76 | HMSNRFIQFRQRAIDWLNSDRDFNAGILLLEESGFKPGVVAKLKRHGVNGPEAKKRLKFLINELVKAWA | -0.374
